Test results taken from patent publication US20120316071A1 (published 2012).

Columns and labels:
[1] = biological target: T1, Recombinant Human DLL4 (delta-like protein 4) (human, UniProt Q9NR61 27-524); assay: ELISA, DLL4 coated plate, Fab in solution; average signal minus noise
T1 construct: Bought recombinant human DLL4 (R&D Systems Cat#1506-D4/CF), coated on the plate; also called rHuman DLL4; Delta-like 4

[2] = biological target: T1, Recombinant Human DLL4 (delta-like …); assay: ECL (MSD) 96-well plate assay, recombinant human DLL4 coated, Fab in solution
[3] = biological target: T2, Recombinant Human DLL4 (delta-like protein 4) (human, UniProt Q9NR61 27-524); assay: ELISA, plate-coated DLL4, Fab 25 nM
T2 construct: also called rHuman DLL4

[4] = biological target: T2, Recombinant Human DLL4 (delta-like …); assay: ELISA, plate-coated DLL4, Fab 50 nM
[5] = biological target: T2, Recombinant Human DLL4 (delta-like …); assay: ELISA, plate-coated DLL4, Fab 100 nM
[6] = biological target: T2, Recombinant Human DLL4 (delta-like …); assay: ELISA, plate-coated DLL4, Fab 12.5 nM
[7] = biological target: T2, Recombinant Human DLL4 (delta-like …); assay: ELISA, plate-coated DLL4, Fab 6.25 nM
[8] = biological target: T2, Recombinant Human DLL4 (delta-like …); assay: ELISA, plate-coated DLL4, Fab 3.125 nM

Row | Binder | ELISA (Avgerage signal-noise) [1] | ECL signal [2] | ELISA signal at 25 nM Fab [3] | ELISA signal at 50 nM Fab [4] | ELISA signal at 100 nM Fab [5] | ELISA signal at 12.5 nM Fab [6] | ELISA signal at 6.25 nM Fab [7] | ELISA signal at 3.125 nM Fab [8]
1 | Fab VH1-46_IGHD6-6*01_IGHJ1*01 S102A/S103P/S104F/H111F (H:APFF) & L6_IGKJ1*01 S28N/S30D/S31H (L:NDH) (Fab, V domains shown, Parent template of this NNK series; Fab made in E. coli: heavy chain from Plasmid A (CH1, His6 and Flag tags), kappa light chain from Plasmid C (kappa CL); also called H:APFF & L:NDH) VH: QVQLVQSGAEVKKPGASVKVSCKASGYTFTSYYMHWVRQAPGQGLEWMGIINPSGGSTSYAQKFQGRVTMTRDTSTSTVYMELSSLRSEDTAVYYCAREEYAPFSAEYFQFWGQGTLVTVSS VL: EIVLTQSPATLSLSPGERATLSCRASQNVDHYLAWYQQKPGQAPRLLIYDASNRATGIPARFSGSGSGTDFTLTISSLEPEDFAVYYCQQRSNWPPWTFGQGTKVEIKR | 0.214 | 17200 |  |  |  |  |  | 
2 | Fab VH1-46_IGHD6-6*01_IGHJ1*01 S102A/S103P/S104F/H111F (H:APFF) & L6_IGKJ1*01 S28N/S30D/S31H A55C (Fab, V domains shown, Fab made in E. coli: heavy chain from Plasmid A (CH1, His6 and Flag tags), kappa light chain from Plasmid C (kappa CL); also called H:APFF & L:NDH A55C) VH: QVQLVQSGAEVKKPGASVKVSCKASGYTFTSYYMHWVRQAPGQGLEWMGIINPSGGSTSYAQKFQGRVTMTRDTSTSTVYMELSSLRSEDTAVYYCAREEYAPFSAEYFQFWGQGTLVTVSS VL: EIVLTQSPATLSLSPGERATLSCRASQNVDHYLAWYQQKPGQAPRLLIYDASNRCTGIPARFSGSGSGTDFTLTISSLEPEDFAVYYCQQRSNWPPWTFGQGTKVEIKR | 0.146 | 8230 |  |  |  |  |  | 
3 | Fab VH1-46_IGHD6-6*01_IGHJ1*01 S102A/S103P/S104F/H111F (H:APFF) & L6_IGKJ1*01 S28N/S30D/S31H A55R (Fab, V domains shown, Fab made in E. coli: heavy chain from Plasmid A (CH1, His6 and Flag tags), kappa light chain from Plasmid C (kappa CL); also called H:APFF & L:NDH A55R) VH: QVQLVQSGAEVKKPGASVKVSCKASGYTFTSYYMHWVRQAPGQGLEWMGIINPSGGSTSYAQKFQGRVTMTRDTSTSTVYMELSSLRSEDTAVYYCAREEYAPFSAEYFQFWGQGTLVTVSS VL: EIVLTQSPATLSLSPGERATLSCRASQNVDHYLAWYQQKPGQAPRLLIYDASNRRTGIPARFSGSGSGTDFTLTISSLEPEDFAVYYCQQRSNWPPWTFGQGTKVEIKR | 0.106 | 9030 |  |  |  |  |  | 
4 | Fab VH1-46_IGHD6-6*01_IGHJ1*01 S102A/S103P/S104F/H111F (H:APFF) & L6_IGKJ1*01 S28N/S30D/S31H A55S (Fab, V domains shown, Fab made in E. coli: heavy chain from Plasmid A (CH1, His6 and Flag tags), kappa light chain from Plasmid C (kappa CL); also called H:APFF & L:NDH A55S) VH: QVQLVQSGAEVKKPGASVKVSCKASGYTFTSYYMHWVRQAPGQGLEWMGIINPSGGSTSYAQKFQGRVTMTRDTSTSTVYMELSSLRSEDTAVYYCAREEYAPFSAEYFQFWGQGTLVTVSS VL: EIVLTQSPATLSLSPGERATLSCRASQNVDHYLAWYQQKPGQAPRLLIYDASNRSTGIPARFSGSGSGTDFTLTISSLEPEDFAVYYCQQRSNWPPWTFGQGTKVEIKR | 0.383 | 20000 |  |  |  |  |  | 
5 | Fab VH1-46_IGHD6-6*01_IGHJ1*01 S102A/S103P/S104F/H111F (H:APFF) & L6_IGKJ1*01 S28N/S30D/S31H N53A (Fab, V domains shown, Fab made in E. coli: heavy chain from Plasmid A (CH1, His6 and Flag tags), kappa light chain from Plasmid C (kappa CL); also called H:APFF & L:NDH N53A) VH: QVQLVQSGAEVKKPGASVKVSCKASGYTFTSYYMHWVRQAPGQGLEWMGIINPSGGSTSYAQKFQGRVTMTRDTSTSTVYMELSSLRSEDTAVYYCAREEYAPFSAEYFQFWGQGTLVTVSS VL: EIVLTQSPATLSLSPGERATLSCRASQNVDHYLAWYQQKPGQAPRLLIYDASARATGIPARFSGSGSGTDFTLTISSLEPEDFAVYYCQQRSNWPPWTFGQGTKVEIKR | 0.151 | 14200 |  |  |  |  |  | 
6 | Fab VH1-46_IGHD6-6*01_IGHJ1*01 S102A/S103P/S104F/H111F (H:APFF) & L6_IGKJ1*01 S28N/S30D/S31H N53P (Fab, V domains shown, Fab made in E. coli: heavy chain from Plasmid A (CH1, His6 and Flag tags), kappa light chain from Plasmid C (kappa CL); also called H:APFF & L:NDH N53P) VH: QVQLVQSGAEVKKPGASVKVSCKASGYTFTSYYMHWVRQAPGQGLEWMGIINPSGGSTSYAQKFQGRVTMTRDTSTSTVYMELSSLRSEDTAVYYCAREEYAPFSAEYFQFWGQGTLVTVSS VL: EIVLTQSPATLSLSPGERATLSCRASQNVDHYLAWYQQKPGQAPRLLIYDASPRATGIPARFSGSGSGTDFTLTISSLEPEDFAVYYCQQRSNWPPWTFGQGTKVEIKR | 0.12 | 18100 |  |  |  |  |  | 
7 | Fab VH1-46_IGHD6-6*01_IGHJ1*01 S102A/S103P/S104F/H111F (APFF) & L6_IGKJ1*01 S28N/S30D/S31H (NDH) (Fab, V domains shown, Fab made in E. coli: VH in plasmid A (CH1, His6 and Flag tags), VL in plasmid C (kappa CL); also called H:APFF & L:NDH; APFF / NDH) VH: QVQLVQSGAEVKKPGASVKVSCKASGYTFTSYYMHWVRQAPGQGLEWMGIINPSGGSTSYAQKFQGRVTMTRDTSTSTVYMELSSLRSEDTAVYYCAREEYAPFSAEYFQFWGQGTLVTVSS VL: EIVLTQSPATLSLSPGERATLSCRASQNVDHYLAWYQQKPGQAPRLLIYDASNRATGIPARFSGSGSGTDFTLTISSLEPEDFAVYYCQQRSNWPPWTFGQGTKVEIKR |  |  | 0.31 | 0.507 | 0.686 | 0.192 | 0.125 | 0.096
8 | Fab VH1-46_IGHD6-6*01_IGHJ1*01 S102A/S103P/S104F/H111F (APFF) & L6_IGKJ1*01 S28N/S30D/S31H A55G (Fab, V domains shown, Fab made in E. coli: VH in plasmid A (CH1, His6 and Flag tags), VL in plasmid C (kappa CL); also called H:APFF & L:NDH A55G; APFF / NDH/A55G) VH: QVQLVQSGAEVKKPGASVKVSCKASGYTFTSYYMHWVRQAPGQGLEWMGIINPSGGSTSYAQKFQGRVTMTRDTSTSTVYMELSSLRSEDTAVYYCAREEYAPFSAEYFQFWGQGTLVTVSS VL: EIVLTQSPATLSLSPGERATLSCRASQNVDHYLAWYQQKPGQAPRLLIYDASNRGTGIPARFSGSGSGTDFTLTISSLEPEDFAVYYCQQRSNWPPWTFGQGTKVEIKR |  |  | 0.316 | 0.51 | 0.814 | 0.198 | 0.125 | 0.093
9 | Fab VH1-46_IGHD6-6*01_IGHJ1*01 S102A/S103P/S104F/H111F (APFF) & L6_IGKJ1*01 S28N/S30D/S31H A55S (Fab, V domains shown, Fab made in E. coli: VH in plasmid A (CH1, His6 and Flag tags), VL in plasmid C (kappa CL); also called H:APFF & L:NDH A55S; APFF / NDH/A55S) VH: QVQLVQSGAEVKKPGASVKVSCKASGYTFTSYYMHWVRQAPGQGLEWMGIINPSGGSTSYAQKFQGRVTMTRDTSTSTVYMELSSLRSEDTAVYYCAREEYAPFSAEYFQFWGQGTLVTVSS VL: EIVLTQSPATLSLSPGERATLSCRASQNVDHYLAWYQQKPGQAPRLLIYDASNRSTGIPARFSGSGSGTDFTLTISSLEPEDFAVYYCQQRSNWPPWTFGQGTKVEIKR |  |  | 0.407 | 0.588 | 0.858 | 0.258 | 0.154 | 0.108
10 | Fab VH1-46_IGHD6-6*01_IGHJ1*01 S102A/S103P/S104F/H111F (APFF) & L6_IGKJ1*01 S28N/S30D/S31H N53H (Fab, V domains shown, Fab made in E. coli: VH in plasmid A (CH1, His6 and Flag tags), VL in plasmid C (kappa CL); also called H:APFF & L:NDH N53H; APFF / NDH/N53H) VH: QVQLVQSGAEVKKPGASVKVSCKASGYTFTSYYMHWVRQAPGQGLEWMGIINPSGGSTSYAQKFQGRVTMTRDTSTSTVYMELSSLRSEDTAVYYCAREEYAPFSAEYFQFWGQGTLVTVSS VL: EIVLTQSPATLSLSPGERATLSCRASQNVDHYLAWYQQKPGQAPRLLIYDASHRATGIPARFSGSGSGTDFTLTISSLEPEDFAVYYCQQRSNWPPWTFGQGTKVEIKR |  |  | 0.238 | 0.416 | 0.608 | 0.167 | 0.109 | 0.089
